# Measurements: patent publication US9701748B2, “Humanized anti-CD22 antibody” (IMMUNOMEDICS, INC., priority 2014, dated 2017)
# “Also recorded” adds a separate entry of the source. Where two headings read alike, the source gives them in different places.
# B1: hRFB4: humanized anti-CD22 antibody with variable region sequences SEQ ID NO:7 and SEQ ID NO:8 (antibody, V domains shown)
# VH: QVQLVQSGAEVKKPGSSVKVSCKASGFTFSIYDMSWVRQAPGQGLEWVAYISSGGGTTYYPDTVKGRFTITADESTNTAYMELSSLRSEDTAFYFCARHSGYGSSYGVLFAYWGQGTLVTVSS
# VL: DIQLTQSPSSLSASVGDRVTISCRASQDISNYLNWYQQKPGKAPKLLIYYTSILHSGVPSRFSGSGSGTDYTFTISSLQPEDIATYYCQQGNTLPWTFGGGTKVQIKR
# Experiments:
# [1] = test system: RII isoform of PKA compared with the RI isoform; settings: 2006, cited from earlier work; for isoform preference of peptide antagonists: Stokka et al.
# [2] = test system: B cells gated from PBMCs of healthy donors; experiment: Trogocytosis: surface antigen levels on B cells after overnight treatment of PBMCs, flow cytometry; assay type: cell-based, human
# Experimental: Peripheral blood mononuclear cells (PBMCs) obtained from healthy donors were incubated overnight (16-24 h) with 10 μg/mL of either epratuzumab or an isotype control mAb (hMN-14) and the relative levels of various antigens on the surface of the B cells were analyzed by flow cytometry. PBMCs from heparinized whole blood of normal donors were isolated by density gradient centrifugation on UNI-SEP tubes (Novamed Ltd, Israel). PBMCs were reconstituted in RPMI media supplemented with 10% heat inactivated fetal bovine serum and plated at a cell density of 1.5×10^6/mL in non-tissue culture treated 48-well plates. […] Stained cells were analyzed by flow cytometry on a FACSCALIBUR® (BD Biosciences) using Flowjo (V7.6.5) software. Initially, the lymphocyte population was gated by side vs. forward scattering, and B cells were further gated from this population with the CD19 signal. The mean fluorescence intensity (MFI), obtained with fluorochrome-conjugated antibodies to various cell surface antigens, on the gated B cells was calculated following treatment with epratuzumab, hMN-14 or without antibody. PBMCs from 16 healthy donors were assessed in various experiments.
# [3] = test system: subcutaneous Ramos Burkitt lymphoma tumors; experiment: Therapeutic efficacy in mice bearing a human Burkitt lymphoma xenograft (Ramos); assay type: in vivo, NCr athymic nu/nu mice
# Experimental: A humanized anti-human CD22 monoclonal antibody, hRFB4, was conjugated with SN-38 as described in U.S. Pat. Nos. 7,999,083 and 8,080,250 (the Examples section of each of which is incorporated herein by reference) at a drug to antibody ratio of 5.71. This antibody drug conjugate (ADC) was tested in mice bearing subcutaneous (s.c.) Ramos Burkitt lymphoma tumors. Efficacy was compared to another anti-CD22 SN-38-ADC, hLL2-SN-38.
# To perform this study, 5 week-old female NCr athymic nu/nu mice were injected s.c. with Ramos cells that were harvested from tissue culture (1×10^7 cells per mouse). Once tumors reach approximately 0.2 cm^3 in size, they were divided up into treatment groups. Mice received 250 μg hRFB4-SN-38 i.p. twice weekly for two weeks. Likewise, mice received hLL2-SN-38 or a non-tumor targeting anti-CEACAM5 SN-38-ADC (hMN14-SN-38) at the same dose/schedule as the hRFB4-SN-38. Saline control mice received 100 μL i.p. injections twice weekly for two weeks. Tumors were measured and mice weighed twice weekly. Animals were euthanized for disease progression if their tumor volumes exceeded 1.0 cm^3 in size.
# [4] = biological target: DDD of the RII form of PKA (Homo sapiens, UniProt P13861); settings: Hundsrucker et al., 2006, cited from earlier work
# Chain of DDD of the RII form of PKA (P13861 whole entry): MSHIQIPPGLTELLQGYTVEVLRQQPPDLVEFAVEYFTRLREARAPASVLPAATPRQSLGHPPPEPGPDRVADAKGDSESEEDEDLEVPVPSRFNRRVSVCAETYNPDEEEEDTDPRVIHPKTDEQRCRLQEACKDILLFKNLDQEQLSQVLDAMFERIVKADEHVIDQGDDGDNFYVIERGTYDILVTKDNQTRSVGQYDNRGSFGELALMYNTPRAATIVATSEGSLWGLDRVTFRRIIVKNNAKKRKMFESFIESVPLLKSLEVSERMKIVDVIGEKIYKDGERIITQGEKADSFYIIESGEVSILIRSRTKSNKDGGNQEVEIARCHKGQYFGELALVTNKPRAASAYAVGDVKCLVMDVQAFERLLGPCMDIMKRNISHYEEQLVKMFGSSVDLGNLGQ
# [5] = biological target: T1, CD22 (Homo sapiens, UniProt P20273); experiment: Binding affinity for CD22+ Daudi cells determined by ELISA (FIG. 2)
# T1 construct: endogenous in cells; host or cells: Daudi (Burkitt lymphoma) cells
# Experimental: FIG. 2. Comparative binding affinity for CD22+ Daudi cells of hLL2 IgG, hRFB4 IgG, chimeric RFB4 conjugated to AD2 peptide, and hMN-14 IgG, as determined by ELISA. The binding affinity of hRFB4 as determined for Daudi cells is about 10-fold higher than that of hLL2 and about 30% higher than the chimeric RFB4.
# The hRFB4 antibody was prepared as described above, resulting in a humanized anti-CD22 antibody with variable region sequences as shown in FIG. 1A and FIG. 1B (SEQ ID NO:7 and SEQ ID NO:8). After expression, the binding affinity or CD22+ Daudi cells was compared to that of the hLL2 antibody, comprising the same FR and constant region sequences but different CDR sequences, and to the chimeric RFB4 antibody, comprising the same CDR sequences but different FR and constant region sequences.
# [6] = test system: Daudi cells; experiment: Dose-response of trogocytosis of CD22 and CD19 from Daudi cells (FIG. 6A, 6B); assay type: cell-based, human
# [7] = test system: patients with primary Sjögren's syndrome; assay type: in vivo, human
# Experimental: Patients with primary Sjögren's syndrome receive 8 doses of 20, 40, 80 or 160 mg hRFB4 injected s.c. every week or every two weeks.
# [8] = test system: patients with SLE who have failed at least one previous therapy; experiment: Combination therapy of SLE with hRFB4 and hLL2; assay type: in vivo, human; settings: single antibody alone, same dosage and schedule
# Experimental: Patients with SLE who have failed at least one previous therapy receive combination therapy with 160 mg each of hRFB4 and hLL2 (epratuzumab), administered s.c. in 2 injections weekly for four weeks. Control groups receive hRFB4 alone, hLL2 alone or irrelevant antibody (hMN-14) at the same dosage and schedule. […] All serum samples evaluated for anti-human antibodies (HAHA) are negative.
# [9] = test system: patients with previously untreated or relapsed hairy cell leukemia; assay type: in vivo, human
# Experimental: Patients with previously untreated or relapsed hairy cell leukemia receive 4 doses of 40, 80, 160 or 320 mg hRFB4 injected s.c. every week or every two weeks.
# [10] = test system: patients with moderately active SLE; experiment: Open-label study of hRFB4 in systemic lupus erythematosus; assay type: in vivo, human
# Experimental: An open-label, single-center study of patients with moderately active SLE (total British Isles Lupus Assessment Group (BILAG) score 6 to 12) is conducted. Patients receive dosages of hRFB4 of 50, 100, 200, and 400 mg subcutaneously (SC) every week for 6 weeks. Evaluations include safety, SLE activity (BILAG), blood levels of B and T cells, human anti-RFB4 antibody (HAHA) titers, and levels of cell surface CD19, CD20, CD21, CD22 and CD79b on B cells. It is determined that a dosage of 50-100 mg per SC injection results in optimal depletion of B cell CD19, while producing less than 50% depletion of normal B cells. Subsequently, a subcutaneous dose of 100 mg hRFB4 is administered to a new group of patients with moderately active SLE.
# [11] = test system: rheumatoid arthritis patients who have failed at least one TNFα inhibitor; assay type: in vivo, human
# Experimental: Patients who have failed therapy with at least one TNFα inhibitor receive 4 doses of 40, 80, 160 or 320 mg hRFB4 injected s.c. every week or every two weeks. The antibody is either administered alone or in conjunction with oral methotrexate (10-25 mg/week).
molecule,measurement,setting,value
FEELAWKIAKMIWSDVFQQC [PV-38],isoform preference of peptide antagonists,[1],higher affinity for RI
hMN-14: anti-CEACAM5 antibody used as isotype control [reference compound],effect on levels of the tested surface proteins,"[2]; isotype control mAb, 10 μg/mL, overnight",did not affect the levels of any of the tested proteins
hMN14-SN-38: non-tumor targeting anti-CEACAM5 SN-38-ADC,median survival time (MST),"[3]; 250 μg i.p. twice weekly for two weeks, days post-therapy initiation, death = tumor exceeding 1.0 cm^3",5 days
QIEYLAKQIVDNAIQQA [AKAP-IS],Kd,"[4]; Alto et al., 2003, read-out: binding constant for DDD",0.4 nM
same,affinity for the RII DDD sequence,[4],particularly high affinities
QIEYVAKQIVDYAIHQA [SuperAKAP-IS],selectivity for the RII isoform of PKA compared with the RI isoform,[1]; Gold et al.,five order of magnitude higher selectivity
hLL2-SN-38,survival compared with hMN14-SN-38 control group,[3]; 250 μg i.p. twice weekly for two weeks,no significant difference
same,mice tumor free when the study ended,"[3]; day 87, 250 μg i.p. twice weekly for two weeks",1 of 6
same,survival compared with saline control,"[3]; log-rank test, P=0.0012",significantly better than saline control
DLIEEAASRIVDAVIEQVKAAGAY [Ht-31],isoform preference of peptide antagonists,[1],greater affinity for the RII isoform of PKA
PEDAELVRLSKRDVENAVLKAVQQY [AKAP7δ-L308D-pep],affinity for the RII DDD sequence,[4],particularly high affinities
LEQYANQLADQIIKEATE [RIAD],isoform preference of peptide antagonists,[1],higher affinity for RI
PEDAELVRTSKRLVENAVLKAVQQY [AKAP7δ-L304T-pep],affinity for the RII DDD sequence,[4],particularly high affinities
PEDAELVRLSKRLVENAVLKAVQQY [AKAP7δ-wt-pep],affinity for the RII DDD sequence,[4],particularly high affinities
B1,Kd,"[5]; CD22+ Daudi cells, FIG. 2",0.2 nM
same,"binding affinity, higher than the chimeric RFB4","[5]; Daudi cells, versus chimeric RFB4 conjugated to AD2 peptide",about 30%
same,"trogocytosis (MFI of CD22, CD19, CD21, CD79b on B cells) compared with hLL2","[2]; overnight treatment of PBMCs, FIG. 4A-4D",more efficacious than the hLL2 antibody; also recorded: as capable of mediating trogocytosis as hLL2
same,minimal concentration to induce the maximal level of trogocytosis of CD19,"[6]; CD19 from Daudi cell, FIG. 6B",1 ng/mL
same,minimal concentration to induce the maximal level of trogocytosis of CD22,"[6]; CD22 from Daudi cell, FIG. 6A",1 ng/mL
same,concentration inducing the maximal level of trogocytosis of CD19 and CD22,"[6]; dose-response curve, FIG. 6A and 6B",1 ng/mL
same,median corticosteroid after treatment,"[7]; 80 mg group, six months after treatment, decrease from 17.5 mg/day",8.3 mg/day
same,B-cell depletion,[7]; all dosage levels,Transient B-cell depletion
same,human anti-hRFB4 antibody (HAHA) in serum samples,[7]; in vivo,negative
same,objective responses,"[7]; s.c., all dose levels",observed at all dose levels
same,objective responses,[8],Objective responses are observed
same,"depletion of B cell surface levels of CD19, CD20, CD21, CD22 and CD79b",[9]; 40 mg,moderate level
same,"depletion of B cell surface levels of CD19, CD20, CD21, CD22 and CD79b",[9]; 80 mg,much higher level
same,B-cell depletion,[9]; all dosage levels,Transient B-cell depletion
same,objective responses (mostly partial responses),[9]; dose of 80 mg,30%
same,human anti-hRFB4 antibody (HAHA) in serum samples,[9]; in vivo,negative
same,release pattern of s.c. antibody,"[9]; in vivo, sc",slow release pattern over several days
same,optimum dosage,[9]; six months after treatment,80 mg
same,patients with BILAG decreases continuing to at least 18 weeks,[10]; 100 mg SC,92%
same,decrease of total BILAG scores,"[10]; 100 mg SC, all patients",at least 50%
same,depletion of normal B cells,"[10]; 50-100 mg per SC injection, weekly for 6 weeks",less than 50%
same,immunogenicity,[10]; SLE patients,no evidence of immunogenicity
same,tolerability,[10]; SLE patients,well tolerated
same,patients with improvement in at least one BILAG B- or C-level disease activity,"[10]; at 6, 10 and 18 weeks",93%
same,average decrease of B-cell levels,[10]; at 18 weeks,35%
same,patients with multiple BILAG B involvement at baseline who completely resolved all B-level disease activities,[10]; by 18 weeks,3 patients
same,"depletion of B cell surface levels of CD19, CD20, CD21, CD22 and CD79b",[11]; 80 mg,moderate level
same,"depletion of B cell surface levels of CD19, CD20, CD21, CD22 and CD79b",[11]; 160 mg,much higher level
same,B-cell depletion,[11]; all dosage levels,Transient B-cell depletion
same,human anti-hRFB4 antibody (HAHA) in serum samples,[11]; in vivo,negative
same,release pattern of s.c. antibody,"[11]; in vivo, sc",slow release pattern over several days
same,objective responses,"[11]; s.c., all dose levels",observed at all dose levels
same,optimum dosage,[11]; six months after treatment,160 mg
